In US12630600B2 (MEDIMMUNE LIMITED, priority 2022, dated 2026):
Starred links: 1 amine or outer side, 2 acyl side, 3 side chain; linkers in the order of their positions; H or OH if unused. Non-standard residues stand in square brackets, D forms with d. Groups on a side chain read outwards from the residue. Primed or numbered codes have the meaning given here. No end group written: not given here. *: point of attachment. C20 diacid = O=C(O)CCCCCCCCCCCCCCCCCCC(=O)*; C18 diacid = O=C(O)CCCCCCCCCCCCCCCCC(=O)*; γGlu = O=C(O)[C@H](CCC(=O)[*:2])N[*:1]; Palmitoyl = CCCCCCCCCCCCCCCC(=O)*; αMeF = C[C@](N)(Cc1ccccc1)C(=O)O; Myristoyl = CCCCCCCCCCCCCC(=O)*; PEG2′ = polyethylene glycol 2; αMeS = C[C@](N)(CO)C(=O)O; AEEA = NCCOCCOCC(=O)O; Aib = CC(C)(N)C(=O)O

Target: human GLP-1 receptor (human, UniProt P43220)
Assay: cell-based or functional assay

Binder | cAMP production EC50 [nM]
H[αMeS]QGS[αMeF]TSDVSKILDSK([PEG2′-PEG2′-γGlu-Palmitoyl])AAQD[αMeF]VQ[Aib]IINT-NH2 [Peptide 134] | 0.000592
H[αMeS]QGS[αMeF]TSDVSKILDSK([PEG2′-PEG2′-γGlu-Myristoyl])AAQD[αMeF]VQ[Aib]IINT-NH2 [Peptide 135] | 0.000407
H[Aib]QGTFTSDVSK[αMeF]LDRK([AEEA-AEEA-γGlu-C18 diacid])RAQDFVRWLLAE-NH2 (N-terminus assumed; SMILES CC(C)C[C@H](NC(=O)[C@H](CC(C)C)NC(=O)[C@H](Cc1c[nH]c2ccccc12)NC(=O)[C@H](CCCNC(=N)N)NC(=O)[C@@H](NC(=O)[C@H](Cc1ccccc1)NC(=O)[C@H](CC(=O)O)NC(=O)[C@H](CCC(N)=O)NC(=O)[C@H](C)NC(=O)[C@H](CCCNC(=N)N)NC(=O)[C@H](CCCCNC(=O)COCCOCCNC(=O)COCCOCCNC(=O)CC[C@H](NC(=O)CCCCCCCCCCCCCCCCC(=O)O)C(=O)O)NC(=O)[C@H](CCCNC(=N)N)NC(=O)[C@H](CC(=O)O)NC(=O)[C@H](CC(C)C)NC(=O)[C@](C)(Cc1ccccc1)NC(=O)[C@H](CCCCN)NC(=O)[C@H](CO)NC(=O)[C@@H](NC(=O)[C@H](CC(=O)O)NC(=O)[C@H](CO)NC(=O)[C@@H](NC(=O)[C@H](Cc1ccccc1)NC(=O)[C@@H](NC(=O)CNC(=O)[C@H](CCC(N)=O)NC(=O)C(C)(C)NC(=O)[C@@H](N)Cc1c[nH]cn1)[C@@H](C)O)[C@@H](C)O)C(C)C)C(C)C)C(=O)N[C@@H](C)C(=O)N[C@@H](CCC(=O)O)C(N)=O) [Peptide 461] | 0.167
H[Aib]QGTFTSDVSK[αMeF]LDSK([AEEA-AEEA-γGlu-γGlu-C18 diacid])RAQDFVQWLL[Aib]T-NH2 (N-terminus assumed; SMILES CC(C)C[C@H](NC(=O)[C@H](Cc1c[nH]c2ccccc12)NC(=O)[C@H](CCC(N)=O)NC(=O)[C@@H](NC(=O)[C@H](Cc1ccccc1)NC(=O)[C@H](CC(=O)O)NC(=O)[C@H](CCC(N)=O)NC(=O)[C@H](C)NC(=O)[C@H](CCCNC(=N)N)NC(=O)[C@H](CCCCNC(=O)COCCOCCNC(=O)COCCOCCNC(=O)CC[C@H](NC(=O)CC[C@H](NC(=O)CCCCCCCCCCCCCCCCC(=O)O)C(=O)O)C(=O)O)NC(=O)[C@H](CO)NC(=O)[C@H](CC(=O)O)NC(=O)[C@H](CC(C)C)NC(=O)[C@](C)(Cc1ccccc1)NC(=O)[C@H](CCCCN)NC(=O)[C@H](CO)NC(=O)[C@@H](NC(=O)[C@H](CC(=O)O)NC(=O)[C@H](CO)NC(=O)[C@@H](NC(=O)[C@H](Cc1ccccc1)NC(=O)[C@@H](NC(=O)CNC(=O)[C@H](CCC(N)=O)NC(=O)C(C)(C)NC(=O)[C@@H](N)Cc1c[nH]cn1)[C@@H](C)O)[C@@H](C)O)C(C)C)C(C)C)C(=O)N[C@@H](CC(C)C)C(=O)NC(C)(C)C(=O)N[C@H](C(N)=O)[C@@H](C)O) [Peptide 463] | 0.274
H[Aib]QGTFTSDVSK[αMeF]LDTK([AEEA-AEEA-γGlu-C18 diacid])RARDFVQWLLE[Aib]K-NH2 (N-terminus assumed; SMILES CC(C)C[C@H](NC(=O)[C@H](Cc1c[nH]c2ccccc12)NC(=O)[C@H](CCC(N)=O)NC(=O)[C@@H](NC(=O)[C@H](Cc1ccccc1)NC(=O)[C@H](CC(=O)O)NC(=O)[C@H](CCCNC(=N)N)NC(=O)[C@H](C)NC(=O)[C@H](CCCNC(=N)N)NC(=O)[C@H](CCCCNC(=O)COCCOCCNC(=O)COCCOCCNC(=O)CC[C@H](NC(=O)CCCCCCCCCCCCCCCCC(=O)O)C(=O)O)NC(=O)[C@@H](NC(=O)[C@H](CC(=O)O)NC(=O)[C@H](CC(C)C)NC(=O)[C@](C)(Cc1ccccc1)NC(=O)[C@H](CCCCN)NC(=O)[C@H](CO)NC(=O)[C@@H](NC(=O)[C@H](CC(=O)O)NC(=O)[C@H](CO)NC(=O)[C@@H](NC(=O)[C@H](Cc1ccccc1)NC(=O)[C@@H](NC(=O)CNC(=O)[C@H](CCC(N)=O)NC(=O)C(C)(C)NC(=O)[C@@H](N)Cc1c[nH]cn1)[C@@H](C)O)[C@@H](C)O)C(C)C)[C@@H](C)O)C(C)C)C(=O)N[C@@H](CC(C)C)C(=O)N[C@@H](CCC(=O)O)C(=O)NC(C)(C)C(=O)N[C@@H](CCCCN)C(N)=O) [Peptide 480] | 0.0126
H[Aib]QGTFTSDVSK[αMeF]LDTK([AEEA-AEEA-γGlu-C18 diacid])RARDFVQWLL[Aib]TE-NH2 (N-terminus assumed; SMILES CC(C)C[C@H](NC(=O)[C@H](Cc1c[nH]c2ccccc12)NC(=O)[C@H](CCC(N)=O)NC(=O)[C@@H](NC(=O)[C@H](Cc1ccccc1)NC(=O)[C@H](CC(=O)O)NC(=O)[C@H](CCCNC(=N)N)NC(=O)[C@H](C)NC(=O)[C@H](CCCNC(=N)N)NC(=O)[C@H](CCCCNC(=O)COCCOCCNC(=O)COCCOCCNC(=O)CC[C@H](NC(=O)CCCCCCCCCCCCCCCCC(=O)O)C(=O)O)NC(=O)[C@@H](NC(=O)[C@H](CC(=O)O)NC(=O)[C@H](CC(C)C)NC(=O)[C@](C)(Cc1ccccc1)NC(=O)[C@H](CCCCN)NC(=O)[C@H](CO)NC(=O)[C@@H](NC(=O)[C@H](CC(=O)O)NC(=O)[C@H](CO)NC(=O)[C@@H](NC(=O)[C@H](Cc1ccccc1)NC(=O)[C@@H](NC(=O)CNC(=O)[C@H](CCC(N)=O)NC(=O)C(C)(C)NC(=O)[C@@H](N)Cc1c[nH]cn1)[C@@H](C)O)[C@@H](C)O)C(C)C)[C@@H](C)O)C(C)C)C(=O)N[C@@H](CC(C)C)C(=O)NC(C)(C)C(=O)N[C@H](C(=O)N[C@@H](CCC(=O)O)C(N)=O)[C@@H](C)O) [Peptide 489] | 0.0228
H[Aib]QGTFTSDVSK[αMeF]LDTK([AEEA-AEEA-γGlu-C20 diacid])RARDFVRWLL[Aib]E-NH2 (N-terminus assumed; SMILES CC(C)C[C@H](NC(=O)[C@H](Cc1c[nH]c2ccccc12)NC(=O)[C@H](CCCNC(=N)N)NC(=O)[C@@H](NC(=O)[C@H](Cc1ccccc1)NC(=O)[C@H](CC(=O)O)NC(=O)[C@H](CCCNC(=N)N)NC(=O)[C@H](C)NC(=O)[C@H](CCCNC(=N)N)NC(=O)[C@H](CCCCNC(=O)COCCOCCNC(=O)COCCOCCNC(=O)CC[C@H](NC(=O)CCCCCCCCCCCCCCCCCCC(=O)O)C(=O)O)NC(=O)[C@@H](NC(=O)[C@H](CC(=O)O)NC(=O)[C@H](CC(C)C)NC(=O)[C@](C)(Cc1ccccc1)NC(=O)[C@H](CCCCN)NC(=O)[C@H](CO)NC(=O)[C@@H](NC(=O)[C@H](CC(=O)O)NC(=O)[C@H](CO)NC(=O)[C@@H](NC(=O)[C@H](Cc1ccccc1)NC(=O)[C@@H](NC(=O)CNC(=O)[C@H](CCC(N)=O)NC(=O)C(C)(C)NC(=O)[C@@H](N)Cc1c[nH]cn1)[C@@H](C)O)[C@@H](C)O)C(C)C)[C@@H](C)O)C(C)C)C(=O)N[C@@H](CC(C)C)C(=O)NC(C)(C)C(=O)N[C@@H](CCC(=O)O)C(N)=O) [Peptide 511] | 0.118
H[Aib]QGTFTSDVSK[αMeF]LDTK([AEEA-AEEA-γGlu-C18 diacid])RAQDFVRWLLE[Aib]G-OH (N-terminus assumed; SMILES CC(C)C[C@H](NC(=O)[C@H](Cc1c[nH]c2ccccc12)NC(=O)[C@H](CCCNC(=N)N)NC(=O)[C@@H](NC(=O)[C@H](Cc1ccccc1)NC(=O)[C@H](CC(=O)O)NC(=O)[C@H](CCC(N)=O)NC(=O)[C@H](C)NC(=O)[C@H](CCCNC(=N)N)NC(=O)[C@H](CCCCNC(=O)COCCOCCNC(=O)COCCOCCNC(=O)CC[C@H](NC(=O)CCCCCCCCCCCCCCCCC(=O)O)C(=O)O)NC(=O)[C@@H](NC(=O)[C@H](CC(=O)O)NC(=O)[C@H](CC(C)C)NC(=O)[C@](C)(Cc1ccccc1)NC(=O)[C@H](CCCCN)NC(=O)[C@H](CO)NC(=O)[C@@H](NC(=O)[C@H](CC(=O)O)NC(=O)[C@H](CO)NC(=O)[C@@H](NC(=O)[C@H](Cc1ccccc1)NC(=O)[C@@H](NC(=O)CNC(=O)[C@H](CCC(N)=O)NC(=O)C(C)(C)NC(=O)[C@@H](N)Cc1c[nH]cn1)[C@@H](C)O)[C@@H](C)O)C(C)C)[C@@H](C)O)C(C)C)C(=O)N[C@@H](CC(C)C)C(=O)N[C@@H](CCC(=O)O)C(=O)NC(C)(C)C(=O)NCC(=O)O) [Peptide 140] | 0.0227

Target: human glucagon receptor (human, UniProt P47871)
Assay: cell-based or functional assay

Binder | cAMP production EC50 [nM]
H[αMeS]QGS[αMeF]TSDVSKILDSK([PEG2′-PEG2′-γGlu-Palmitoyl])AAQD[αMeF]VQ[Aib]IINT-NH2 [Peptide 134] | 0.015
H[αMeS]QGS[αMeF]TSDVSKILDSK([PEG2′-PEG2′-γGlu-Myristoyl])AAQD[αMeF]VQ[Aib]IINT-NH2 [Peptide 135] | 0.015
H[Aib]QGTFTSDVSK[αMeF]LDTK([AEEA-AEEA-γGlu-γGlu-C20 diacid])RARDFVQWLLE[Aib]G-NH2 [Peptide 458] | 0.385
H[Aib]QGTFTSDVSK[αMeF]LDTK([AEEA-AEEA-γGlu-C18 diacid])RAQDFVQWLL[Aib]T-OH (N-terminus assumed; SMILES CC(C)C[C@H](NC(=O)[C@H](Cc1c[nH]c2ccccc12)NC(=O)[C@H](CCC(N)=O)NC(=O)[C@@H](NC(=O)[C@H](Cc1ccccc1)NC(=O)[C@H](CC(=O)O)NC(=O)[C@H](CCC(N)=O)NC(=O)[C@H](C)NC(=O)[C@H](CCCNC(=N)N)NC(=O)[C@H](CCCCNC(=O)COCCOCCNC(=O)COCCOCCNC(=O)CC[C@H](NC(=O)CCCCCCCCCCCCCCCCC(=O)O)C(=O)O)NC(=O)[C@@H](NC(=O)[C@H](CC(=O)O)NC(=O)[C@H](CC(C)C)NC(=O)[C@](C)(Cc1ccccc1)NC(=O)[C@H](CCCCN)NC(=O)[C@H](CO)NC(=O)[C@@H](NC(=O)[C@H](CC(=O)O)NC(=O)[C@H](CO)NC(=O)[C@@H](NC(=O)[C@H](Cc1ccccc1)NC(=O)[C@@H](NC(=O)CNC(=O)[C@H](CCC(N)=O)NC(=O)C(C)(C)NC(=O)[C@@H](N)Cc1c[nH]cn1)[C@@H](C)O)[C@@H](C)O)C(C)C)[C@@H](C)O)C(C)C)C(=O)N[C@@H](CC(C)C)C(=O)NC(C)(C)C(=O)N[C@H](C(=O)O)[C@@H](C)O) [Peptide 35] | 0.335
